Measured values published in article doi:10.1101/2022.02.14.480394 (bioRxiv, 2022).

Biological target: Receptor Binding-Domain (RBD) of SARS-CoV-2 Spike (S) protein, Wuhan-Hu-1 (SARS-CoV-2, UniProt P0DTC2)
Assay: BLI

Row | Binder | binding result
1 | C118 (antibody, V domains shown) VH: QVQLVESGGGVVQPGRSLRLSCAASGFTFSNYAMHWVRQAPGKGLEWVAVISYDGSNKYYADSVKGRFTISRDNSKNTLYLQMNSLRAEDTAIYYCASGYTGYDYFVRGDYYGLDVWGQGTTVTVSS VL: QPVLTQSPSASASLGASVKLTCTLSSGHSSYAIAWHQQQPEKGPRYLMKLNTDGSHSKGDGIPDRFSGSSSGAERYLTISSLQSEDEADYYCQTWGTGILVFGGGTKLTVL | binds
2 | C105 (antibody, V domains shown) VH: QVQLVESGGGLIQPGGSLRLSCAASGFTVSSNYMSWVRQAPGKGLEWVSVIYSGGSTYYADSVKGRFTISRDNSKNTLYLQMNSLRAEDTAVYYCARGEGWELPYDYWGQGTLVTVSS VL: QSALTQPPSASGSPGQSVTISCTGTSSDVGGYKYVSWYQQHPGKAPKLMIYEVSKRPSGVPDRFSGSKSGNTASLTVSGLQAEDEADYYCSSYEGSNNFVVFGGGTKLTVL | binds
